{"source": "the supplement of paper PMC12636428"}
{"tested_on": "Saccharomyces cerevisiae", "assay": "transcriptional activation domain activity (GFP:mCherry ratio, weighted mean of sorted bins, harmonized to initial dataset scale) (arbitrary fluorescence ratio units); higher = stronger transcriptional activation", "settings": "beta-estradiol 1 µM; induction time 4 h", "in_short": "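The listed activation activity is a read-weighted mean of bin median fluorescence, averaged across barcodes and linearly mapped onto the initial dataset scale. Barcoded tiles, fused to an estradiol-inducible synthetic transcription factor, were integrated at URA3 in yeast diploids bearing a GFP reporter. Cells were held 4 hours at 30 °C in SC with 1 uM beta-estradiol, sorted into 8 GFP:mCherry bins, and sequenced, and tiles with fewer than 50 reads were excluded.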"}
{"sequence": "KIHIVNMAQVIVLCIHRFLYGIIPLFEISTCIYFPLLVSLWHITYILFYIVMF", "transcriptional activation domain activity": 55200}
{"sequence": "KIHLLPTGVHQWNLKVKDLIHCLKLFHYAEIMYALSIVPLKAAIIFQCLRVFV", "transcriptional activation domain activity": 47200}
{"sequence": "KIHLVNIAQVVVFFIYRFLYGLIPLFEISTCAYYPLLVSLWHLDYLLFYTVMF", "transcriptional activation domain activity": 64000}
{"sequence": "KIHLVNIAQVVVFFIYRLLYGLIPLFEIATCAYYPLLVSLWHLDYLLFYTVMF", "transcriptional activation domain activity": 62800}
{"sequence": "KIHLVNIGQVLVLLLHRFLYGIIPLFEITTCAYFPFLVSLWHIQYILFYAVMF", "transcriptional activation domain activity": 84900}
{"sequence": "KIHLVNISQVVVFFVYRFLYGLIPLFEIATCAYYPLLVSLWHLDYLLFYAVMF", "transcriptional activation domain activity": 48100}
{"sequence": "KIHLVNLAQVSVFFIHRVLYGIIPLFEIKTCAYFPLLVSLWHMTYILFYIVMF", "transcriptional activation domain activity": 71200}
{"sequence": "KIHLVNLAQVTVFFIHRLLYGIIPLFEIATCAYYPFLVSLWHINYLLFYIVMF", "transcriptional activation domain activity": 42000}
{"sequence": "KIHLVNLGQISVFFIHRFLFGLIPLFEITTCAFFPLLISLWHIDYLLFYTVMF", "transcriptional activation domain activity": 39800}
{"sequence": "KIHLVNLLQISVLFVHRFIFGLVPLFEITTCAFFPLLISLWHLDYILFYVVMF", "transcriptional activation domain activity": 53800}
{"sequence": "KIHLVNLSQVVVFFIHRILFGIIPLFEIETCAYFPLLISLWHLTYLLFYVVMF", "transcriptional activation domain activity": 80700}
{"sequence": "KIHLVNMAQVVVIFLHRILYGIIPLFEITTCAYFPLLVSLWHLAYILFYVVMF", "transcriptional activation domain activity": 81600}
{"sequence": "KIISAFGWNADKHLGFALLQLCMDGNRIRSPLAAMMLLMYYVTLMTHCPQILT", "transcriptional activation domain activity": 63700}
{"sequence": "KILLNHNYFYFRMLCHHQTCNIYNLYHQIFLIFLQIIVSILLSLRIIALYLGN", "transcriptional activation domain activity": 66400}
{"sequence": "KILNCLSIRLYLCRKGFGSLPNEQLALFNFNARECLRALGVTLFKPRLYRLCY", "transcriptional activation domain activity": 80900}
{"sequence": "KILVQAFKAVFTSPSSAKEADGDGEGADIIENNRRARRALYQVKVKTCVASII", "transcriptional activation domain activity": 42000}
{"sequence": "KIMSFIIGLGLICPLVLVRDKLTILLTLCYEGLLVGFWFIDHAQALRWYCLFI", "transcriptional activation domain activity": 68700}
{"sequence": "KINQIFGYRSGLGFSIITLDWNQIAYIGSPYVAGSFRWAEANVMIGFMFFYWF", "transcriptional activation domain activity": 70300}
{"sequence": "KIRTNALLSSFLVSLTEGAANGTRFASPEGAVTSALVRIFLRLIWLWTATGRR", "transcriptional activation domain activity": 57200}
{"sequence": "KISAEYMVQYKGGLIGKHFKSLSQIMAFVVYDLVPKDILDAWTIIGRLVVLLW", "transcriptional activation domain activity": 75900}
{"sequence": "KISALCCVLSVFKIDDLVNDPILNKVLHLNNIYLDVLISLILRNNQPTIELMV", "transcriptional activation domain activity": 57900}
{"sequence": "KISVCWLWGLDSLHLAFCIYMMYWYLITNFCVVAELGCFNIQTFFASKAFVIL", "transcriptional activation domain activity": 49800}
{"sequence": "KIVKHVILAATWRTSSVQDSFYLLATWWIICWQFYFVSVYIFPLILIALLHYM", "transcriptional activation domain activity": 60700}
{"sequence": "KKAAAALNGEAADGEATAEGEGAPKREPRAKKPRTPRPRRAPGEEPAGEPSKN", "transcriptional activation domain activity": 44900}
{"sequence": "KKAEKQEGEDKEKEEKPKPSRGKKRKESEEPNGASAEGEEEPVAKKAKPASKA", "transcriptional activation domain activity": 49000}
{"sequence": "KKAKAGDEDEEGGADKASPKKGAKRGRKQVEDEDEDESEEVQPKAKRAKKAVV", "transcriptional activation domain activity": 24800}
{"sequence": "KKAKKGGDEAGAKGSGKPKKPAGEADGSVAAEGGAAKGKARKAASSEPKKGAK", "transcriptional activation domain activity": 27900}
{"sequence": "KKASSSAVGEGKKKSASKPRTSSAGGASVDGQPKKPKQSKKKAASGSKGGAGS", "transcriptional activation domain activity": 28500}
{"sequence": "KKDEEQTSSSTPSPPPQESAEKNEAKDEEKPAEQKAKKKPKKLQVRSAGTPAP", "transcriptional activation domain activity": 7630}
{"sequence": "KKEAAAAKKEPAKRKKTKADEEDKESAEGTESDEESKPKKKKAAPKKKGAATA", "transcriptional activation domain activity": 20600}
{"sequence": "KKEEEGEESEPEKLPKSTKRGRKKVEEEVKAEGEEEEEEAPVAKKQKPAANGS", "transcriptional activation domain activity": "< 6570"}
{"sequence": "KKEEVKQEPAAPTPAPAPAPTGASSDRGGRGQGRGRARGDSSRGGGGRAAAPP", "transcriptional activation domain activity": 38000}
{"sequence": "KKEEVKQEPTPAAAPEASTSDRGRGRGRGRGEGRGRGDGTRGRGRGGARPAGP", "transcriptional activation domain activity": 34900}
{"sequence": "KKEGEDGKGKRKVVVYVGNAKFVTQREEGRDAFSASLASFDAQESAHGRTTIY", "transcriptional activation domain activity": 75600}
{"sequence": "KKEKAEKNKQQSKGQGQGEGDKEQKKEGEGEGEGGKDARAKGEKDGKDEKGAK", "transcriptional activation domain activity": 46400}
{"sequence": "KKEKSPSEDEAEKPKSPKSPFAKLRATVKGKSPKTEKPAEEPKAEAAPEAKTE", "transcriptional activation domain activity": 24100}
{"sequence": "KKEPVYDSEGNEVKPTPRKRVKKEPATEEDGSESKSASKKRVKKEADAEGDSS", "transcriptional activation domain activity": 17100}
{"sequence": "KKERKKEEKEEKGEKVKGKGERYVSDQVEEERERRRKRRNAKRQEREEEREKR", "transcriptional activation domain activity": 42900}
{"sequence": "KKGGKAAKSADRPPSRSRLEEEYVFIDVVSSFLRAIRARVIHIRHGAIVLAHY", "transcriptional activation domain activity": 64100}
{"sequence": "KKGREDMGNERKGNDMEGREGEKRGRKGKREGGGKGGKGGEKQREGRTGERGR", "transcriptional activation domain activity": 21800}
{"sequence": "KKGRRGRRRNRRGRKEGESEKGRKGGKGKGRKGEEQRRVRIKKGSRGTGEGEK", "transcriptional activation domain activity": "< 6570"}
{"sequence": "KKGRRKENGEGGEEKGKGAGGRGEGEEAGRRSRIKGVGGKRRGAGRRRGRREG", "transcriptional activation domain activity": 17100}
{"sequence": "KKGTIMTIASPSTVRRNMYDWLPSLFYFMPNSILGMWFDMTLPKLFFFLFLSQ", "transcriptional activation domain activity": 63400}
{"sequence": "KKKAAAEEDDEDDDEKVPAKKPAKRGRKKAADDEADEPQPPAKKAKKSPAKKT", "transcriptional activation domain activity": 55800}
{"sequence": "KKKEEGKKRKRKRGKGRGRREKEERRKRGKEKGRRKERGKGKKKKESWGWRKG", "transcriptional activation domain activity": 42000}
{"sequence": "KKKKRKKKTPSKGESEEKGDDEDDEDEKKQTPKANTGAKKTKATGKTDREKKE", "transcriptional activation domain activity": 51500}
{"sequence": "KKKRDNRREKPRKSRKGRSDDEIREGEEGESRRRKRKEGGGRARAATPQEENE", "transcriptional activation domain activity": 32800}
{"sequence": "KKKSKKRKEKKEKKRRSKSKKKGKKKRRSRSNSGSSSDSSSEDSSSSSSDSSD", "transcriptional activation domain activity": 50500}
{"sequence": "KKKSSGRKSGSKGVGRLGSGSEETDEDESSRGSGSEAGRSSKDKKGKSRSNVE", "transcriptional activation domain activity": 39900}
{"sequence": "KKKSSRKRDEEDKERSLRKHSRHHKSRRKRSRERSESPESSRHRHRHKKSSSS", "transcriptional activation domain activity": 17600}
{"sequence": "KKLHLESEEDAEYIVAKAIRDGVIEAQVNHERGEMTSRETGDVYSTNEPQAQL", "transcriptional activation domain activity": "< 6570"}
{"sequence": "KKLQNDILRPVDWIMYYYFASHIPITVLFDLQAIYPTNWVPQLLLDINAQYIN", "transcriptional activation domain activity": 37500}
{"sequence": "KKLTRGKGKKSKGKKARSNAKRSKGKGKVTKEDTSDEEDEEEGEEERGEEEEE", "transcriptional activation domain activity": 12500}
{"sequence": "KKNRHGKFAYSDRYNLSEYIIEQLSEYDDIDLVKPWHRKLMLLHPFVILWVFF", "transcriptional activation domain activity": 60600}
{"sequence": "KKPAAKAKAGPSKANGEAAANGKGEEKEQEKEEAPKEKFKAAKLADPAAPGSK", "transcriptional activation domain activity": 31200}
{"sequence": "KKPAAKKQKTAPAEKINTTDDSKKARGRPKKADSNGTAKAAQKKKEPKAAATA", "transcriptional activation domain activity": 32900}
{"sequence": "KKPPARLLAKKAPAAAAGGEEGSSKSAAKPAAPPVKKVVPAAAAAKPAKGGAP", "transcriptional activation domain activity": 28400}
{"sequence": "KKQEERKEGYRRKVEENKEKREGREKREKDEFWRREGKKRRYQEGDGAGAGAG", "transcriptional activation domain activity": 38100}
{"sequence": "KKREKKERSRRHRDDDGERRRRHRSRSRSRDRERRHRHRDRSRSRDRRRDDGR", "transcriptional activation domain activity": 35200}
{"sequence": "KKRGKRTTNGKESGRSSKKARAGSQPKPRTNARTANAAAEDDDDDDEEDDHEG", "transcriptional activation domain activity": 46700}
{"sequence": "KKRNAKRPKVESEGEDELADAKKEADDDEDESPKKVSKASSSPEAKVKQSSVS", "transcriptional activation domain activity": 26200}
{"sequence": "KKRRKKAKEGAERGKKKRKHTDDGAGVADGVDQRDSQRESDESSADEDGNSGK", "transcriptional activation domain activity": 38300}
{"sequence": "KKSDEKDDTKPKKKKAKHDDADKESKKKLKKASKEKKSKSTKSKKDTAENAIA", "transcriptional activation domain activity": 42900}
{"sequence": "KKSGTTSKDEKKEGDSDSKATPSSGESAAPSAANNEGGKKEEKSEEKKEEKEE", "transcriptional activation domain activity": 41700}
{"sequence": "KKSSTSSTAAPKKRTPAKKSTPAPTPSPSASPEPVKPKKTSSKKAAKPVAVAE", "transcriptional activation domain activity": 25400}
{"sequence": "KKSVLQLLAWLMHYKLYPTRNYKAICNCLPKLFENPLWAEFCSKMADTMVKYN", "transcriptional activation domain activity": 46300}
{"sequence": "KLAKKEPAAAKPKSEKPKAEKKTTEKKPVAKKATTTKKPAAAKPKAAPKPKTA", "transcriptional activation domain activity": 27000}
{"sequence": "KLAKKEPKAAAKPKTEKAKVEKKPAAKKATTTKAKPAAPKAKAAAKPKAATTK", "transcriptional activation domain activity": 23800}
{"sequence": "KLEHEPGPEPKPEAEEKPKKARGRPKKAIPEGGYTPKKARGRPKKVLDPEAEV", "transcriptional activation domain activity": 14000}
{"sequence": "KLEYVSLGRIEIVACFDKYTMASKGIHMLLGCCFSKIKFVCLSQADYQAAVLL", "transcriptional activation domain activity": 67100}
{"sequence": "KLFFNLSILTLCAIMTLSVVVAFLFVTGCDPFYGYRGILFGFRILLTDIFSNM", "transcriptional activation domain activity": 31400}
{"sequence": "KLGAAGGGRGSERDKRRRGEGERGGGDAVARAGEGEGRGRGRRRRKRSAACAG", "transcriptional activation domain activity": 39200}
{"sequence": "KLGFQVLVQVILVIWYKPDKIPSAVNVDKEIKKGEPVDNKARVLVECVLDVFQ", "transcriptional activation domain activity": 51700}
{"sequence": "KLGLGPTYGIMLALLVSHGIVCCFKTSILARLNVYYVILNLGTLIALSVALLV", "transcriptional activation domain activity": 50600}
{"sequence": "KLGPTPQCLDGFFFFSLLALASLHPVSPCLLFFFFFLLWFPSSFFWPSVLQVQ", "transcriptional activation domain activity": 62500}
{"sequence": "KLGVCLLLILDSLHTTFCIYAMYWYLVINFGVFPELAMMHWSFEAQQMLNVLV", "transcriptional activation domain activity": 37800}
{"sequence": "KLHQQAKSDFDELQESIPHQVGFSTPQLTAQQLIENAIESGVVDLETLDLPPF", "transcriptional activation domain activity": 112000}
{"sequence": "KLIFIFFFFYFFSFFVLLLLLLFLLLLFLPLLMATSACMLGLMFDKLPFFSNI", "transcriptional activation domain activity": 46300}
{"sequence": "KLIKHNKNVRTWWKKDDQFWVPRGHIHVYFRTPIIGITVRAQLTASLFINLVH", "transcriptional activation domain activity": 47300}
{"sequence": "KLIYVRILGYLLHHMPSEAGLQQLVTEIVSFRTEEAFLKLGLLYFEHAIRLFR", "transcriptional activation domain activity": 36800}
{"sequence": "KLKEKNKKRKRGEEVSDDEEEGPKDDEPKEKKAKKEEEHGVWVGNLAFATSQD", "transcriptional activation domain activity": 36700}
{"sequence": "KLKSLVAIVWILDFVHLILICQAIYHYLITNWGTTQRFCSPPRFSICTLCLSL", "transcriptional activation domain activity": 55200}
{"sequence": "KLLCVGRPFRASSTEVVVTMALLSMLRHLPTTRWKDSLKLLAWVLEQYIYRFT", "transcriptional activation domain activity": 51000}
